For assay [1], the target named is T1, hCD33 and hCD123 immobilized simultaneously on one switchSENSE chip (ratio 2:1, CD33:CD123) (human, UniProt P20138 18-259; P26951 19-305, limits assumed).
T1 construct: Not a complex: two separate ligands on one surface; used for avidity values and for off-rates; also called both ligands; both targets attached to the surface of the chip
Briefly: switchSENSE; KD,2 (avidity, simultaneous binding of CD33 and CD123). On the procedure:
(§1) The designed ankyrin repeat proteins: DARPin® protein #20, DARPin® protein #21, DARPin® protein #22, DARPin® protein #27, DARPin® protein #40 and DARPin® protein #41 were tested in a concentration of 0.16 and 64 nM (in a buffer PE140 containing 10 mM Na2HPO4/NaH2PO4, 140 mM NaCl, 0.05% Tween20, 50 μM EDTA, 50 μM EGTA) for binding against two ligands hCD33 and hCD123, which both were immobilized simultaneously to DNA nanolevers, on the surface, at a pre-defined ratio (2:1, CD33:CD123) and 10% density (100:50) on an ADP-48-1-0 chip, where 100% density 1000 receptors/μm2 (preincubated R1-B48-CD123 and G1-A48-CD33 (100 nM) diluted in cNL-48 (dark)). Briefly the following steps were performed: [0724] Conjugation. Amine coupling of the two ligands (CD33 and CD123) to the DNA nanolever (A48, B48, respectively) and purification of the conjugates using the proFIRE® solution (Dynamic Biosensors GmbH) at 25° C. [0725] Evaluation of all the combined affinity and avidity of all different proteins to both ligands attached on the surface of an ADP chip using a DRX+ instrument (dynamic BIOSENSORS). [0726] Statistical analysis (repeatability from 2 to 5 times) including regeneration of the chip surface every concentration analyzed and long dissociation times and data were fitted using a bi-exponential global fit.
Target sequence in this assay (P20138 18-259 limits assumed, one chain of several): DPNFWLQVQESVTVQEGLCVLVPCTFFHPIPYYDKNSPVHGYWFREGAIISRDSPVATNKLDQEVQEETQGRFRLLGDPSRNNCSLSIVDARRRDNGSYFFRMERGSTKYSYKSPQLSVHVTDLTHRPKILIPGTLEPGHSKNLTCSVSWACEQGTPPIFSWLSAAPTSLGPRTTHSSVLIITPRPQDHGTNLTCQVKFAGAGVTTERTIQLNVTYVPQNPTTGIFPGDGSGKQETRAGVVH

Assay [2] has as its target T1, hCD33 and hCD123 immobilized …. Briefly: switchSENSE, CD33 and CD123 on one chip; slow phase (avidity); slow phase (avidity).
Target sequence in this assay (P20138 18-259 limits assumed, one chain of several): as above
Assay [3] deals with T2, human serum albumin (human, UniProt P02768 25-609).
T2 construct: also called HSA; SA
T2 sequence (P02768 25-609 limits assumed): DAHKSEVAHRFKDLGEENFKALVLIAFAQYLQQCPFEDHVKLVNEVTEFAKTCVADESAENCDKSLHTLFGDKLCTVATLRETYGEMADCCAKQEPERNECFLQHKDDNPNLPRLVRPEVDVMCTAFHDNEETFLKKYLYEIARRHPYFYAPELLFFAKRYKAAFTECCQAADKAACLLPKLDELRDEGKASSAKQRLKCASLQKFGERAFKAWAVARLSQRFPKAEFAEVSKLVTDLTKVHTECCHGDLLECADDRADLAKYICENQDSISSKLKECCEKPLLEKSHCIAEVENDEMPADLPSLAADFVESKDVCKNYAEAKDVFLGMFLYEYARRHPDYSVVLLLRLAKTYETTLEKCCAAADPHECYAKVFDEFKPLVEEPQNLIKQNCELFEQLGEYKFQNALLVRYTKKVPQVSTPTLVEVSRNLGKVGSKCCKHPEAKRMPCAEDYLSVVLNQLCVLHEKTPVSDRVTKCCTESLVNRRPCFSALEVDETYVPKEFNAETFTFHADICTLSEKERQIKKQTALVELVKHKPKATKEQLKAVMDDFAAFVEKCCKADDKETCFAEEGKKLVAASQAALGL
Briefly: SPR (ProteOn XPR36), target on GLC chip.

The target of assay [4] is T3, extracellular domain of human CD70 (SEQ ID NO: 89), hCD70-Fc-trimer, ACRO Biosystems (human, UniProt P32970 52-193, chemically biotinylated where the biotinylated form was used).
T3 construct: also called human CD70-Fc-trimer; Bio.CD70
T3 sequence: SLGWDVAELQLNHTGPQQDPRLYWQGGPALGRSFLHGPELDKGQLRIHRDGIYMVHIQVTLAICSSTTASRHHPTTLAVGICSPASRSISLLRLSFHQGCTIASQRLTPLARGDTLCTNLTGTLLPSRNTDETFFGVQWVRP
Description: SPR (ProteOn XPR36), target on GLC chip.

Assay [5] concerns the target T1, hCD33 and hCD123 immobilized …. Briefly: switchSENSE, CD33 and CD123 on one chip; fast phase (affinity); fast phase (affinity). On the procedure: as §1
Target sequence in this assay (P20138 18-259 limits assumed, chain 1 of 2): as the sequence (P20138 18-259 limits assumed, one chain of several) above
Target sequence in this assay (P26951 19-305 limits assumed, chain 2 of 2): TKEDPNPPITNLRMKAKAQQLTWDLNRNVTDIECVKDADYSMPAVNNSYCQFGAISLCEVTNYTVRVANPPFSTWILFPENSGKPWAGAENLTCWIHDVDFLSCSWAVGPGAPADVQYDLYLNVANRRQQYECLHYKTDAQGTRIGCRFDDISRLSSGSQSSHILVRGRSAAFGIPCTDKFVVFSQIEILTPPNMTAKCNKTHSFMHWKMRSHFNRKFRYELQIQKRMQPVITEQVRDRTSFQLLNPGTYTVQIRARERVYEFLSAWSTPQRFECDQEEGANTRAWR
For assay [6], the target named is T4, biotinylated extracellular domain of human CD33 (SEQ ID NO: 87), Fc and Avi tagged (human, UniProt P20138 18-259, biotinylated with BirA-GST (Avi tag)).
T4 construct: also called hCD33; human target hCD33
T4 sequence (P20138 18-259 R69G): as the sequence (P20138 18-259 limits assumed, one chain of several) above, with R52G counted along it
Description: SPR (ProteOn XPR36), target on GLC chip, DARPin as analyte.

The target in assay [7] is T5, biotinylated extracellular domain of human CD123 (SEQ ID NO: 88), Fc and Avi tagged (human, UniProt P26951 19-303, biotinylated with BirA-GST (Avi tag)).
T5 construct: also called hCD123
T5 sequence: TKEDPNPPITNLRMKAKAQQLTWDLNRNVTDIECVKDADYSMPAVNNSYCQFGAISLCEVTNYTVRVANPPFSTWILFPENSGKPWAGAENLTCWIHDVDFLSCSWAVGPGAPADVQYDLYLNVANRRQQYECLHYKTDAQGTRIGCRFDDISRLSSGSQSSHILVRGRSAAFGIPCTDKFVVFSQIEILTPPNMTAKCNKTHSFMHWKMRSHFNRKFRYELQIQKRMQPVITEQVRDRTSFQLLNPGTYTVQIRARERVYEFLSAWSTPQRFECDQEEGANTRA
Described as above.

B1: DARPin® protein #27 (designed binder)
chain: DLGKKLLEAALEGQLDEVRELLKAGADVNAKDQEGYTPLHLAAALGHLEIVEVLLKAGADVNAKDSIGRTPLHLAAYKGHLEIVEVLLKAGADVNAQDLLGETPADLAAEQGHQDIAEVLQKAAGSPTPTPTTPTPTPTTPTPTPTGSDLGVKLLLAASRGQLDEVRILLKAGADVNAKDIDEGYTPLHIAAYYGHLEIVEVLLKAGADVNAKDRYGKTPLHLAAISGHLEIVEVLLKAGADVNAQDDKGDTPADLAADYGHQDIAEVLQKAAGSPTPTPTTPTPTPTTPTPTPTGSDLGQKLLEAAWAGQDDEVRELLKAGADVNAKNSRGWTPLHTAAQTGHLEIFEVLLKAGADVNAKDDKGVTPLHLAAALGHLEIVEVLLKAGADVNAQDSWGTTPADLAAKYGHEDIAEVLQKAA
notes: CD123-CD33-CD3; also called αCD123-aCD33-αCD3_1; not shown: N-terminal His-tag
Regarding B1, the Kd in assay [1] was 0.2 to 0.3 nM; in assay [6], 5.7 nM; in assay [7], 19 nM. For the same molecule, the koff in assay [2] was around 0.001 s⁻¹; in assay [5], around 0.01 s⁻¹. The binding result in assay [3] and in assay [4] was “no binding (tested: 100 nM (highest concentration))” throughout.

(Values after patent US20240254229A1 (Molecular Partners, published 2024).)
